Results: patent US7648703

Target: Ep-CAM antigen (human pan-carcinoma antigen) (human) (UniProt P16422)
Experiment: antibody binding to HT29 adenocarcinoma cells after 15 minute incubation; drug-treated against control cells

UniProt P16422, sequence (P16422 24-314): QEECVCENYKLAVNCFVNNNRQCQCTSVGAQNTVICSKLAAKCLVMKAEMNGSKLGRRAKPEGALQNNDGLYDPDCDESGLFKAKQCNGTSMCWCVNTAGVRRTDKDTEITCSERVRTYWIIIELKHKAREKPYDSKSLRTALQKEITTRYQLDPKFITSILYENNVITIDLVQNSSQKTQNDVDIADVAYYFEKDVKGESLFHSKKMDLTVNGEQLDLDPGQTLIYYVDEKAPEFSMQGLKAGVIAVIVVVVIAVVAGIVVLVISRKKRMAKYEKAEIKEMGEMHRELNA

increase in antibody binding (cells treated with Navelbine plus Cisplatin against control cells): 34% | increase in antibody binding (cells treated with Taxol against control cells): 8%
B1: Panorex (17-1A mouse monoclonal antibody) (antibody, INN chains, looked up, V domains shown)
VH: QVQLQQSGAELVRPGTSVKVSCKASGYAFTNYLIEWVKQRPGQGLEWIGVINPGSGGTNYNEKFKGKATLTADKSSSTAYMQLSSLTSDDSAVYFCARDGPWFAYWGQGTLVTVSA
VL: NIVMTQSPKSMSMSVGERVTLTCKASENVVTYVSWYQQKPEQSPKLLIYGASNRYTGVPDRFTGSGSATDFTLTISSVQAEDLADYHCGQGYSYPYTFGGGTKLEIK
